From patent US20210403579A1 (DELINIA, published 2021)
Changes are numbered by the printed parent chain.

T1: Human ST2 (human, UniProt Q01638 19-328, limits assumed)
T1 construct: also called human ST2 protein; Interleukin 1 receptor-like 1
T1 sequence (looked up): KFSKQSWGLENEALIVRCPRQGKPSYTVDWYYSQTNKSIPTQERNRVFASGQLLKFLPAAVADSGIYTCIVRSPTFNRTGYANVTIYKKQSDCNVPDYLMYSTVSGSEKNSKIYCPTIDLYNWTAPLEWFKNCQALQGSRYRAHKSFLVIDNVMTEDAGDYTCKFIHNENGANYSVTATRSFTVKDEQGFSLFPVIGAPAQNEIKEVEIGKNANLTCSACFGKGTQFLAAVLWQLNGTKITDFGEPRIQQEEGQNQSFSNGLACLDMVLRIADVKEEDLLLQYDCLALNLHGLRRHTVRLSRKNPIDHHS

B1: Human ST2 IgG1 Antibody 28 (antibody, V domains shown)
VH: QVQLVQSGAEVKKPGSSVKVSCKASGGTFGNYGINWVRQAPGQGLEWMGGIIPVFGTTNYAQKFQGRVTITADESTSTAYMELSSLRSEDTAVYYCARGLRYYYGMDVWGQGTTVTVSS
VL: DIVMTQSPLSLPVTPGEPASISCRSSQSLLHSNGYNYLDWYLQKPGQSPQLLIYGASTLQSGVPDRFSGSGSGTDFTLKISRVEAEDVGVYYCMQALQNPLTFGGGTKVEIKR
notes: IgG1; also called ST2 Antibody 28
B2: Human ST2 IgG1 Antibody 30 (antibody, V domains shown)
VH: QVQLVQSGAEVKKPGSSVKVSCKASGYTFTTYGITWVRQAPGQGLEWMGGIIPIFGTANYAQKFQGRVTITADESTSTAYMELSSLRSEDTAVYYCAKLSGSSGSWDYYYYYGMDVWGQGTLVTVSS
VL: B1 VL with G55A, T58N, N99T, L101I, G105Q, G106S, K108R, V109L
notes: IgG1; also called ST2 Antibody 30
B3: Human ST2 IgG1 Antibody 33 (antibody, V domains shown)
VH: QVQLVQSGAEVKKPGSSVKVSCKASGDTFDTYAISWVRQAPGQGLEWMGGIIPIFGTANYAQKFQGRVTITADESTSTAYMELSSLRSEDTAVYYCARSRGRGYSYGSGLFDYWGQGTLVTVSS
VL: DIVMTQSPLSLPVTPGEPASISCRSSESLLITNGFNYIDWYLQKPGQSPQLLIYLGSNRAAGVPDRFSGSGSGTDFTLKISRVEAEDVGVYYCMQALQTPITFGQGTKVEIKR
notes: IgG1; also called ST2 Antibody 33
B4: Human ST2 IgG1 Antibody 24 (antibody, V domains shown)
VH: QVQLVQSGAEVKKPGSSVKVSCKASGGTFSSYAISWVRQAPGQGLEWMGGIIPIFGTANYAQKFQGRVTITADESTSTAYMELSSLRSEDTAVYYCAKTPLGRGYGLFDYWGQGTLVTVSS
VL: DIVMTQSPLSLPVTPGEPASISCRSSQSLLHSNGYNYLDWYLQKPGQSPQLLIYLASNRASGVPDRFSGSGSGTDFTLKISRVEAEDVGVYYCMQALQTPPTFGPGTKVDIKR
notes: IgG1; also called ST2 Antibody 24
B5: Human ST2 IgG1 Antibody 39 (antibody, V domains shown)
VH: QVQLVQSGAEVKKPGSSVKVSCKASGYTFTSYYMQWVRQAPGQGLEWMGGIIPIFGTANYAQKFQGRVTITADESTSTAYMELSSLRSEDTAVYYCARARFGAVDYWGQGTLVTVSS
VL: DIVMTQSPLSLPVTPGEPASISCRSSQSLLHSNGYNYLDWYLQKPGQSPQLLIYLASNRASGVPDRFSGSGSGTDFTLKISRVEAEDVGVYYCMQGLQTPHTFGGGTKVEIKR
notes: IgG1; also called ST2 Antibody 39
B6: Human ST2 IgG1 Antibody 21 (antibody, V domains shown)
VH: QVQLVQSGAEVKKPGASVKVSCKASGYTFSNHYMHWVRQAPGQGLEWMGWVNPTSGNTGYAQKFQGRVTMTRDTSTSTVYMELSSLRSEDTAVYYCARDLGVTYFDLWGRGTLVTVSS
VL: DIQMTQSPSSLSASVGDRVTITCRASQGISSWLAWYQQKPGKAPKLLIYEASHLETGVPSRFSGSGSGTDFTLTISSLQPEDFATYYCLQDYNYPLTFGGGTKVEIKR
notes: IgG1; also called ST2 Antibody 21
B7: Human ST2 IgG1 Antibody 29 (antibody, V domains shown)
VH: QVQLVQSGAEVKKPGASVKVSCKASGGTFTGYFIHWVRQAPGQGLEWMGWMNPNSGNTGYAQKFQGRVTMTRDTSTSTVYMELSSLRSEDTAMYYCAREGQGVVPVDYWGQGTLVTVSS
VL: B6 VL with G28S, E50D, S52T, H53N, G100Q, G101S
notes: IgG1; also called ST2 Antibody 29
B8: Human ST2 IgG1 Antibody 38 (antibody, V domains shown)
VH: QVQLVQSGAEVKKPGSSVKVSCKASGGTFSSYAISWVRQAPGQGLEWMGTIIPMFGIADYAQKFQGRVTITADESTSTAYMELSSLRSEDTAVYYCARSSRSSSWYNWYFDLWGRGTLVTVSS
VL: EIVMTQSPATLSVSPGERATLSCRASQSISSSYLAWYQQKPGQAPRLLIYGASTRATGIPARFSGSGSGTEFTLTISSLQSEDFAVYYCQQYYTTPWTFGQGTKVEIKR
notes: IgG1; also called ST2 Antibody 38
B9: Human ST2 IgG1 Antibody 23 (antibody, V domains shown)
VH: EVQLLESGGGLVKPGGSLRLSCAASGFTFSSYWMHWVRQAPGKGLEWVSSISSRSSYIYYADSVKGRFTISRDDSKNTLYLQMNSLKTEDTAVYYCAREGNGMDVWGQGTTVTVSS
VL: DIQMTQSPSSLSASVGDRVTITCQASQDIGSYLNWYQQKPGKAPKLLIYAASSLQSGVPSRFSGSGSGTDFTLTISSLQPEDFATYYCLQSYSTPFTFGGGTKVEIKR
notes: IgG1; also called ST2 Antibody 23
B10: Human ST2 IgG1 Antibody 35 (antibody, V domains shown)
VH: QVQLVQSGAEVKKPGASVKVSCKASAYTFTSYGISWLRQAPGQGLEWMGWINPNSGNTGYAHKFQGRVTMTRDTSTSTVYMELSSLRSEDTAVYYCARGGSGWPTWGQGTLVTVSS
VL: B9 VL with G30S, S31N, A50G, L89Q, S91A, Y92N, S93T, T94F, G100P, E105D
notes: IgG1; also called ST2 Antibody 35
B11: Human ST2 IgG1 Antibody 31 (antibody, V domains shown)
VH: QVQLVQSGAEVKKPGSSVKVSCKASGGTFSTYAFSWVRQAPGQGLEYMGGIIPMFGTANYAQKFQGRVTITADESTSTAYMELSSLRSEDTAVYYCAGERGYGSLDYWGQGTLVTVSS
VL: B9 VL with Q24R, D28G, Y32W, N34A, L89Q, S93T, T94F, F96Y, G100Q, V104L
notes: IgG1; also called ST2 Antibody 31
B12: Human ST2 IgG1 Antibody 27 (antibody, V domains shown)
VH: QVQLVQSGAEVKKPGASVKVSCKASGYTFTGQYMHWVRQAPGQGLEWMGIINPSGGSTSYAQKFQGRVTMTRDTSTSTVYMELSSLRSEDTAVYYCAGSYYPYYYYGMDVWGQGTTVTVSS
VL: B9 VL with Q24R, D28N, S31Y, Y32F, N34H, L89Q, T94P, F96L
notes: IgG1; also called ST2 Antibody 27
B13: Human ST2 IgG1 Antibody 22 (antibody, V domains shown)
VH: EVQLLESGGGLVQPGGSLRLSCAASGFKFRTFWMNWVRQAPGKGLEWVSVISNGGDATHYADSVKGRFTISRDNSKNTLYLQMNSLRAEDTAVYYCARVDCSGGSCYLGYWGQGTLVTVSS
VL: DIQMTQSPSSLSASVGDRVTITCRASESIGRYLNWYQQKPGKAPKLLIYGTSNLESGVPSRFSGSGSGTDFTLTISSLQPEDFATYYCQQSYSTPPTFGQGTKVEIKR
notes: IgG1; also called ST2 Antibody 22
B14: Human ST2 IgG1 Antibody 37 (antibody, V domains shown)
VH: EVQLLESGGGLVQPGGSLRLSCAASGFTFTDAWMNWVRQAPGKGLEWVSTISVSVGVTYYADSVKGRFTISRDNSKNTLYLQMNSLRAEDTAVYYCATIGSMATIRKGATDAFDIWGQGTLVTVSS
VL: B9 VL with Q24R, D28R, G30N, S53T, L89Q, F96P
notes: IgG1; also called ST2 Antibody 37
B15: Human ST2 IgG1 Antibody 32 (antibody, V domains shown)
VH: EVQLLESGGGLVQPGGSLRLSCAASGFTFSNSDMNWVRQAPGKGLEWVSFISSSSGYTYYADSVKGRFTISRDNSKNTLYLQMNSLRAEDTAVYYCARANNNWNFYFDYWGQGTLVTVSS
VL: DIQMTQSPSSLSASVGDRVTITCRASQSINNWLAWYQQKPGKAPKLLIYSASSLQSGVPSRFSGSGSGTDFTLTISSLQPEDFATYYCQQSYDTPITFGQGTKVEIKR
notes: IgG1; also called ST2 Antibody 32
B16: Human ST2 IgG1 Antibody 40 (antibody, V domains shown)
VH: QVQLVQSGAEVKKPGASVKVSCKASGYTFTSYYIHWVRQAPGQGLEWMGIINPSADTTTYAQQFQGRVTMTRDTSTSTVYMELSSLRSEDTAVYYCARTPGNYGGNSLGYYYYYGMDVWGQGTLVTVSS
VL: B15 VL with I29V, N30G, N31T, S50A, S53T, D93S, T94S, I96L, Q100P, E105D
notes: IgG1; also called ST2 Antibody 40
B17: Human ST2 IgG1 Antibody 36 (antibody, V domains shown)
VH: QVQLVQSGAEVKKPGASVKVSCKASGYTFTSYGISWVRQAPGQGLEWMGWIDPNSGGTNYAQKFQGRVTMTRDTSTSTVYMELSSLRSEDTAVYYCARDDWFSGDLDYWGQGTLVTVSS
VL: B15 VL with S28G, N30D, N31S, S50A, S53K, S56G, S91G, D93S, E105D
notes: IgG1; also called ST2 Antibody 36
B18: Human ST2 IgG1 Antibody 34 (antibody, V domains shown)
VH: QVQLVQSGAEVKKPGASVKVSCKASGQTFTDYAINWVRQAPGQGLEWMGWMNPNSGNTGYAQKFQGRVTMTRDTSTSTVYMELSSLRSEDTAVYYCARETLEQQLPFDYWGQGTLVTVSS
VL: B15 VL with N30S, N31S, S50A, S53T, S91Y, D93S, P95L, I96Y
notes: IgG1; also called ST2 Antibody 34
B19: Human ST2 IgG1 Antibody 25 (antibody, V domains shown)
VH: QVQLVQSGAEVKKPGSSVKVSCKASGGTFSNYAISWVRQAPGQGLEWMGWISAYNGNTNYAQKFQGRVTMTRDTSTSTVYMELSSLRSEDTAVYYCARSTNALDYWGQGTLVTVSS
VL: DIQMTQSPSSLSASVGDRVTITCRASQGIRSNLDWYQQKPGKAPKLLISIVSNLGSGVPSRFSGSGSGTDFTLTISSLQPEDFATYYCLQHNSNPPTFGGGTKVEIKR
notes: IgG1; also called ST2 Antibody 25
B20: Human ST2 IgG1 Antibody 26 (antibody, V domains shown)
VH: QVQLVQSGAEVKKPGSSVKVSCKASGYTFSDYYMHWVRQAPGQGLEWMGGILPVFGTATYAQKFQGRVTITADESTSTAYMELSSLRSEDTAVYYCARGFGYFDYWGQGTLVTVSS
VL: not shown
notes: IgG1; also called ST2 Antibody 26

What follows are binders tested against T1, Human ST2 (assay: SPR (Carterra), antibody immobilized, ST2 analyte).
Experimental: Binding of the reformatted human ST2 antibodies to the human and mouse ST2 proteins was evaluated by surface plasmon resonance (SPR), using a high throughput antibody screening and characterization platform from Carterra (Salt Lake City, Utah).

Kd [nM]	koff [s⁻¹]	kon [M⁻¹ s⁻¹]	Binder
426	0.066	160000	B1
155	0.029	190000	B2
529	0.13	240000	B3
1200	0.055	45000	B4
57	0.022	390000	B5
805	0.017	21000	B6
480	0.0065	14000	B7
17	0.0053	310000	B8
688	0.1	150000	B9
104	0.016	160000	B10
274	0.12	430000	B11
106	0.048	450000	B12
90	0.048	530000	B13
138	0.085	620000	B14
252	0.061	240000	B15
691	0.12	180000	B16
264	0.14	510000	B17
109	0.0011	10000	B18
193	0.03	150000	B19
264	0.14	530000	B20
